Measured values: patent US20240132591A1 (PANDION OPERATIONS, published 2024)

T1: Human MAdCAM (human, UniProt Q13477 19-317, limits assumed)
T1 construct: also called huMAdCAM; human MAdCAM-1
T1 sequence (looked up): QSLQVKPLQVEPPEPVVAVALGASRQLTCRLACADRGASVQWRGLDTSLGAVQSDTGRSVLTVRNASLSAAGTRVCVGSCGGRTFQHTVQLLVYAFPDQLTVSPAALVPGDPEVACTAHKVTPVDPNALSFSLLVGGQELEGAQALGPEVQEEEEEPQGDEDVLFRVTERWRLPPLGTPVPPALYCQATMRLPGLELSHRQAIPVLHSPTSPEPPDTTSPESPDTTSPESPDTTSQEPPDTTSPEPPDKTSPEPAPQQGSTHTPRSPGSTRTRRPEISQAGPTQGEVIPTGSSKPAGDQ

B1: PMAB21 (bispecific antibody, human IgG1, kappa)
heavy: EVQLLESGGGLVQPGGSLRLSCAASGFTFSNSDMSWVRQAPGKGLEWVSGITISGGSTYYADSVKGRFTISRDNSKNTLYLQMNSLRAEDTAVYYCARGRGGSGWLDYWGQGTLVTVSSASTKGPSVFPLAPSSKSTSGGTAALGCLVKDYFPEPVTVSWNSGALTSGVHTFPAVLQSSGLYSLSSVVTVPSSSLGTQTYICNVNHKPSNTKVDKKVEPKSCDKTHTCPPCPAPEAAGAPSVFLFPPKPKDTLMISRTPEVTCVVVDVSHEDPEVKFNWYVDGVEVHNAKTKPREEQYNSTYRVVSVLTVLHQDWLNGKEYKCKVSNKALPAPIEKTISKAKGQPREPQVYTLPPSREEMTKNQVSLTCLVKGFYPSDIAVEWESNGQPENNYKTTPPVLDSDGSFFLYSKLTVDKSRWQQGNVFSCSVMHEALHNHYTQKSLSLSPGGGGGSGGGGSGGGGSEVQLLESGGGLVQPGGSLRLSCAASGFTFSDFAMHWVRQAPGKGLEWISYISGDSGYTNYADSVKGRFTISRDNSKNTLYLQMNSLRAEDTAVYYCARDRPYYYYMDVWGKGTTVTVSSGGGGSGGGGSGGGGSGGGGSDIQMTQSPSSLSASVGDRVTITCRASQSVSRSLAWYQQKPGKAPKLLIYAASSLQSGVPSRFSGSGSGTDFTLTISSLQPEDFATYYCQQYKSYPVTFGQGTKVEIK
light: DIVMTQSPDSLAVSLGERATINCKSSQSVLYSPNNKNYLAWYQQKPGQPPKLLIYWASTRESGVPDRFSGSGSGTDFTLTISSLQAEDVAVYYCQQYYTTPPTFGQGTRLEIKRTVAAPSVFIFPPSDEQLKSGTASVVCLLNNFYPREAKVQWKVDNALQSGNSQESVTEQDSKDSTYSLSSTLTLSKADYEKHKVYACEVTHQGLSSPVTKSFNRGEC
B2: PMAB38 (bispecific antibody, human IgG1, kappa)
heavy: EVQLLESGGGLVQPGGSLRLSCAASGFTFSNSDMSWVRQAPGKGLEWVSGITISGGSTYYADSVKGRFTISRDNSKNTLYLQMNSLRAEDTAVYYCARGRGGSGWLDYWGQGTLVTVSSASTKGPSVFPLAPSSKSTSGGTAALGCLVKDYFPEPVTVSWNSGALTSGVHTFPAVLQSSGLYSLSSVVTVPSSSLGTQTYICNVNHKPSNTKVDKKVEPKSCDKTHTCPPCPAPEAAGAPSVFLFPPKPKDTLMISRTPEVTCVVVDVSHEDPEVKFNWYVDGVEVHNAKTKPREEQYNSTYRVVSVLTVLHQDWLNGKEYKCKVSNKALPAPIEKTISKAKGQPREPQVYTLPPSREEMTKNQVSLTCLVKGFYPSDIAVEWESNGQPENNYKTTPPVLDSDGSFFLYSKLTVDKSRWQQGNVFSCSVMHEALHNHYTQKSLSLSPGGGGGSGGGGSGGGGSEVQLLESGGGLVQPGGSLRLSCAASGFTFSDFWMHWVRQAPGKGLEWISYISGDSGYTNYADSVKGRFTISRDNSKNTLYLQMNSLRAEDTAVYYCARDRPYYYYMDVWGKGTTVTVSSGGGGSGGGGSGGGGSGGGGSDIQMTQSPSSLSASVGDRVTITCRASQSVSRYLAWYQQKPGKAPKLLIYAASSLQSGVPSRFSGSGSGTDFTLTISSLQPEDFATYYCQQYKSYPVTFGQGTKVEIK
light: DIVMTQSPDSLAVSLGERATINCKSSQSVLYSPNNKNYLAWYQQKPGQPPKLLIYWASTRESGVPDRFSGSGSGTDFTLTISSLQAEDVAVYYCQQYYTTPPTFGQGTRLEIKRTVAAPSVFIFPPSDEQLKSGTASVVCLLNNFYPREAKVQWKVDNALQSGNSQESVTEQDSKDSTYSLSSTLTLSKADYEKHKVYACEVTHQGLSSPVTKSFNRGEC
B3: PMAB39 (bispecific antibody, human IgG1, kappa)
heavy: EVQLLESGGGLVQPGGSLRLSCAASGFTFSNSDMSWVRQAPGKGLEWVSGITISGGSTYYADSVKGRFTISRDNSKNTLYLQMNSLRAEDTAVYYCARGRGGSGWLDYWGQGTLVTVSSASTKGPSVFPLAPSSKSTSGGTAALGCLVKDYFPEPVTVSWNSGALTSGVHTFPAVLQSSGLYSLSSVVTVPSSSLGTQTYICNVNHKPSNTKVDKKVEPKSCDKTHTCPPCPAPEAAGAPSVFLFPPKPKDTLMISRTPEVTCVVVDVSHEDPEVKFNWYVDGVEVHNAKTKPREEQYNSTYRVVSVLTVLHQDWLNGKEYKCKVSNKALPAPIEKTISKAKGQPREPQVYTLPPSREEMTKNQVSLTCLVKGFYPSDIAVEWESNGQPENNYKTTPPVLDSDGSFFLYSKLTVDKSRWQQGNVFSCSVMHEALHNHYTQKSLSLSPGGGGGSGGGGSGGGGSEVQLLESGGGLVQPGGSLRLSCAASGFTFSDFWMHWVRQAPGKGLEWISYISGDSGYTNYADSVKGRFTISRDNSKNTLYLQMNSLRAEDTAVYYCARDRPYYYYMDVWGKGTTVTVSSGGGGSGGGGSGGGGSGGGGSDIQMTQSPSSLSASVGDRVTITCRASQSVSRSLNWYQQKPGKAPKLLIYAASSLQSGVPSRFSGSGSGTDFTLTISSLQPEDFATYYCQQYKSYPVTFGQGTKVEIK
light: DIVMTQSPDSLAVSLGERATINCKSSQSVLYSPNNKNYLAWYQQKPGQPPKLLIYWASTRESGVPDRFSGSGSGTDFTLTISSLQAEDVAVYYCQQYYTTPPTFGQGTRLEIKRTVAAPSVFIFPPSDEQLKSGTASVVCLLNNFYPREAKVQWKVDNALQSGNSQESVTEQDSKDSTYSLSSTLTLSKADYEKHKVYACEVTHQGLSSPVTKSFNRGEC
B4: PMAB43 (bispecific antibody, human IgG1, kappa)
heavy: EVQLLESGGGLVQPGGSLRLSCAASGFTFSNSDMSWVRQAPGKGLEWVSGITISGGSTYYADSVKGRFTISRDNSKNTLYLQMNSLRAEDTAVYYCARGRGGSGWLDYWGQGTLVTVSSASTKGPSVFPLAPSSKSTSGGTAALGCLVKDYFPEPVTVSWNSGALTSGVHTFPAVLQSSGLYSLSSVVTVPSSSLGTQTYICNVNHKPSNTKVDKKVEPKSCDKTHTCPPCPAPEAAGAPSVFLFPPKPKDTLMISRTPEVTCVVVDVSHEDPEVKFNWYVDGVEVHNAKTKPREEQYNSTYRVVSVLTVLHQDWLNGKEYKCKVSNKALPAPIEKTISKAKGQPREPQVYTLPPSREEMTKNQVSLTCLVKGFYPSDIAVEWESNGQPENNYKTTPPVLDSDGSFFLYSKLTVDKSRWQQGNVFSCSVMHEALHNHYTQKSLSLSPGGGGGSGGGGSGGGGSEVQLLESGGGLVQPGGSLRLSCAASGFTFSDFWMHWVRQAPGKGLEWISYISGDSGYTNYADSVKGRFTISRDNSKNTLYLQMNSLRAEDTAVYYCARDRPYYYYMDVWGKGTTVTVSSGGGGSGGGGSGGGGSGGGGSDIQMTQSPSSLSASVGDRVTITCRASQSVSRSLAWYQQKPGKAPKLLIYAASSLQSGVPSRFSGSGSGTDFTLTISSLQPEDFATYYCQQYKSYPRTFGQGTKVEIK
light: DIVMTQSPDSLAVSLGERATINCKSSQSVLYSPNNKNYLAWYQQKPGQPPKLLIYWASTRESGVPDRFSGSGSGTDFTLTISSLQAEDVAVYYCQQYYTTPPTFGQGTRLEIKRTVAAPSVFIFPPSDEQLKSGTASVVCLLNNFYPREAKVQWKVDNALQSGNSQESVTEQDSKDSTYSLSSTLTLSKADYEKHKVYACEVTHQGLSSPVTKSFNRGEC
B5: MIAB133 (antibody, human IgG1, kappa)
heavy: EVQLLESGGGLVQPGGSLRLSCAASGFTFSSFWMHWVRQAPGKGLEWISYISGDSGYTNYADSVKGRFTISRDNSKNTLYLQMNSLRAEDTAVYYCARDRPYYYYMDVWGKGTTVTVSSASTKGPSVFPLAPSSKSTSGGTAALGCLVKDYFPEPVTVSWNSGALTSGVHTFPAVLQSSGLYSLSSVVTVPSSSLGTQTYICNVNHKPSNTKVDKKVEPKSCDKTHTCPPCPAPEAAGAPSVFLFPPKPKDTLMISRTPEVTCVVVDVSHEDPEVKFNWYVDGVEVHNAKTKPREEQYNSTYRVVSVLTVLHQDWLNGKEYKCKVSNKALPAPIEKTISKAKGQPREPQVYTLPPSREEMTKNQVSLTCLVKGFYPSDIAVEWESNGQPENNYKTTPPVLDSDGSFFLYSKLTVDKSRWQQGNVFSCSVMHEALHNHYTQKSLSLSPGGGGGSAPTSSSTKKTQLQLEHLLLDLQMILNGINNYKNPKLTRMLTFKFYMPKKATELKHLQCLEEELKPLEEALNLAPSKNFHLRPRDLISDINVIVLELKGSETTFMCEYADETATIVEFINRWITFSQSIISTLT
light: DIQMTQSPSSLSASVGDRVTITCRASQSVSRSLAWYQQKPGKAPKLLIYAASSLQSGVPSRFSGSGSGTDFTLTISSLQPEDFATYYCQQYKSYPVTFGQGTKVEIKRTVAAPSVFIFPPSDEQLKSGTASVVCLLNNFYPREAKVQWKVDNALQSGNSQESVTEQDSKDSTYSLSSTLTLSKADYEKHKVYACEVTHQGLSSPVTKSFNRGEC
notes: also called MIAB133-001
B6: MIAB136 (antibody, human IgG1, kappa)
heavy: EVQLLESGGGLVQPGGSLRLSCAASGFTFSSYAMSWVRQAPGKGLEWISYISGDSGYTNYADSVKGRFTISRDNSKNTLYLQMNSLRAEDTAVYYCARDRPYYYYMDVWGKGTTVTVSSASTKGPSVFPLAPSSKSTSGGTAALGCLVKDYFPEPVTVSWNSGALTSGVHTFPAVLQSSGLYSLSSVVTVPSSSLGTQTYICNVNHKPSNTKVDKKVEPKSCDKTHTCPPCPAPEAAGAPSVFLFPPKPKDTLMISRTPEVTCVVVDVSHEDPEVKFNWYVDGVEVHNAKTKPREEQYNSTYRVVSVLTVLHQDWLNGKEYKCKVSNKALPAPIEKTISKAKGQPREPQVYTLPPSREEMTKNQVSLTCLVKGFYPSDIAVEWESNGQPENNYKTTPPVLDSDGSFFLYSKLTVDKSRWQQGNVFSCSVMHEALHNHYTQKSLSLSPGGGGGSAPTSSSTKKTQLQLEHLLLDLQMILNGINNYKNPKLTRMLTFKFYMPKKATELKHLQCLEEELKPLEEALNLAPSKNFHLRPRDLISDINVIVLELKGSETTFMCEYADETATIVEFINRWITFSQSIISTLT
light: DIQMTQSPSSLSASVGDRVTITCRASQSVSRSLAWYQQKPGKAPKLLIYAASSLQSGVPSRFSGSGSGTDFTLTISSLQPEDFATYYCQQYKSYPVTFGQGTKVEIKRTVAAPSVFIFPPSDEQLKSGTASVVCLLNNFYPREAKVQWKVDNALQSGNSQESVTEQDSKDSTYSLSSTLTLSKADYEKHKVYACEVTHQGLSSPVTKSFNRGEC
notes: HCDR1 germlined
B7: MIAB137 (antibody, human IgG1, kappa)
heavy: EVQLLESGGGLVQPGGSLRLSCAASGFTFSDFWMHWVRQAPGKGLEWVSAISGSGGSTYYADSVKGRFTISRDNSKNTLYLQMNSLRAEDTAVYYCARDRPYYYYMDVWGKGTTVTVSSASTKGPSVFPLAPSSKSTSGGTAALGCLVKDYFPEPVTVSWNSGALTSGVHTFPAVLQSSGLYSLSSVVTVPSSSLGTQTYICNVNHKPSNTKVDKKVEPKSCDKTHTCPPCPAPEAAGAPSVFLFPPKPKDTLMISRTPEVTCVVVDVSHEDPEVKFNWYVDGVEVHNAKTKPREEQYNSTYRVVSVLTVLHQDWLNGKEYKCKVSNKALPAPIEKTISKAKGQPREPQVYTLPPSREEMTKNQVSLTCLVKGFYPSDIAVEWESNGQPENNYKTTPPVLDSDGSFFLYSKLTVDKSRWQQGNVFSCSVMHEALHNHYTQKSLSLSPGGGGGSAPTSSSTKKTQLQLEHLLLDLQMILNGINNYKNPKLTRMLTFKFYMPKKATELKHLQCLEEELKPLEEALNLAPSKNFHLRPRDLISDINVIVLELKGSETTFMCEYADETATIVEFINRWITFSQSIISTLT
light: DIQMTQSPSSLSASVGDRVTITCRASQSVSRSLAWYQQKPGKAPKLLIYAASSLQSGVPSRFSGSGSGTDFTLTISSLQPEDFATYYCQQYKSYPVTFGQGTKVEIKRTVAAPSVFIFPPSDEQLKSGTASVVCLLNNFYPREAKVQWKVDNALQSGNSQESVTEQDSKDSTYSLSSTLTLSKADYEKHKVYACEVTHQGLSSPVTKSFNRGEC
notes: HCDR2 germlined

Biological target: T1, Human MAdCAM
Assay: BLI Octet, AHC capture

Binder	binding result	Kd	koff	kon
B1	no binding (tested: 300 nM top concentration)			
B2	no binding (tested: 200 nM top concentration)			
B3	no binding (tested: 200 nM top concentration)			
B4	no binding (tested: 200 nM top concentration)			
B5		20 nM	0.0113 s⁻¹	564000 M⁻¹ s⁻¹
B6	no binding (tested: 150 nM)			
B7		203 nM	0.082 s⁻¹	404000 M⁻¹ s⁻¹
